Data as given in paper PMC2253636.

Target: IEk on the surface of CH27 murine B-cell lymphoma cells (mouse (endogenous in CH27))
Experiment: flow cytometry on cells; CH27 cells incubated with 1 mM biotinylated peptide for 20 h at 37 °C, washed, stained with streptavidin-Cy5; occupancy of IEk calculated against cells stained with 14-4-4s-bio and streptavidin-Cy5

biotinylated ER60 peptide (from UniProt P27773 448-461)
percent of IEk molecules occupied: 17%
